Data published in the nanobody polyreactivity screen of Harvey et al. (2022).

Assay: yeast display, Sf9 membrane polyspecificity reagent, FACS + sequencing; frameworks hold sequencing errors
Outline: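 Using colony PCR, genes from sorted yeast display clones were amplified, then sequenced on MiSeq at 2 × 250 and filtered by CDR length. The clones had been stained with 10% biotinylated, detergent-solubilized Sf9 membrane reagent for 1 hour at 4 °C and sorted by FACS into low and high (top ~1%) gates on anti-HA and streptavidin fluorescence. Polyreactivity labels come from the gate of origin.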

With “QVQLVESGGGLVQAGGSLRLSCAASGSTFRRYAMGWYRQAPGKERELVAAISWSGGSTYYADSVKGRFTISRDNAKNTVYLQMNSLKPEDTAVYYCAARGVTSYWQDYDYWGQGTQVTVSS” as the sequence, how does the “polyreactivity (PSR sort gate)” value read?
The value was “low polyreactivity”.

For “QVQLVESGGGLVQAGGSLRLSCAASGSTFRRYAMGWYRQAPGKERELVAAITRRGGSTYYADSVKGRFTISRDNAKNTVYLQMNSLKPEDTAVYYCNAVPVVRAGHGYDSWGQGTQVTVSS”, which “polyreactivity (PSR sort gate)” value is on record?
Its value is “high polyreactivity”.

Which “polyreactivity (PSR sort gate)” value does the source give for “QVQLVESGGGLVQAGGSLRLSCAASGSTFRRYAMGWYRQAPGKERELVAAITTNGGSTYYADSVKGRFTISRDNAKNTVYLQMNSLKPEDTAVYYCNARWPYRQRGYDYWGQGTQVTVSS” here?
Its value is “high polyreactivity”.

For “QVQLVESGGGLVQAGGSLRLSCAASGSTFRRYAMGWYRQAPGKERELVADIRGIGGSTYYADSVKGRFTISRDNAKNTVYLQMNSLKPEDTAVYYCNTSTLGGYYWGQGTQVTVSS”, which “polyreactivity (PSR sort gate)” value is on record?
The value was “low polyreactivity”.

Which “polyreactivity (PSR sort gate)” value does the source give for “QVQLVESGGGLVQAGGSLRLSCAASGSTFRRYAMGWYRQAPGKERELVAGISYSGGRTYYADSVKGRFTISRDNAKNTVYLQMNSLKPEDTAVYYCAAKSFPSVRHHENYYWGQGTQVTVSS” here?
The value was “high polyreactivity”.

Which “polyreactivity (PSR sort gate)” value does the source give for “QVQLVESGGGLVQAGGSLRLSCAASGSTFRRYARGWYRQAPGKERELVAAISTRGGSTYYADSVKGRFTISRDNAKNTVYLQMNSLKPEDTAVYYCAADEPKYTSSSSRRYGYWGQGTQVTVSS” here?
The value was “high polyreactivity”.

For “QVQLVESGGGLVQAGGSLRLSCAASGSTFRSNAMGWYRQAPGKERELVAAITYSGGRTYYADSVKGRFTFSRDNAKNTVYLQMNSLIPEDTAVYYCAKVGWSRRYYYWGQGTQVTVSS”, which “polyreactivity (PSR sort gate)” value is on record?
The value was “high polyreactivity”.

Which “polyreactivity (PSR sort gate)” value does the source give for “QVQLVESGGGLVQAGGSLRLSCAASGSTFRSYTMGWYRHAPGKEMELVARISRSGGSTYYADSVKGRFTISRDNAKNTVYLQMNSLKPEDTAVYYCAALYYVKPGQRYDYWGQGTQVTVSS” here?
The value was “high polyreactivity”.

For “QVQLVESGGGLVQAGGSLRLSCAASGSTFRSYTMGWYRQAPGKERELVATIDWSAGNTRYADSVKGRFTISRDNAKNTVYLQMNSLKPEDTAVYYCNKDAGLWVSGTLYYWGQGTQVTVSS”, which “polyreactivity (PSR sort gate)” value is on record?
The value was “low polyreactivity”.

Which “polyreactivity (PSR sort gate)” value does the source give for “QVQLVESGGGLVQAGGSLRLSCAASGSTFRTNVMGWYRQAPGKERELVAAITKRGSITYYADSVKGRFTISRDNAKNTVYLQMNSLKPEDTAVYYCAARKVAVRGYGYWGQGTQVTVSS” here?
Its value is “high polyreactivity”.

With “QVQLVESGGGLVQAGGSLRLSCAASGSTFRTYAMGWYRQAPGKERELVAAISGDTSTNYADSVKGRFTISRDNAKNTVYLQMNSLKPEDTAVYYCAAYWTTYATLWYDYWGQGTQVTVSS” as the sequence, how does the “polyreactivity (PSR sort gate)” value read?
The value was “low polyreactivity”.

With “QVQLVESGGGLVQAGGSLRLSCAASGSTFRTYAMGWYRQAPGKERELVAAISRSGGSTYYADSVKGRFTISRDNAKNTFYLQMNSLKPEDTAVYYCAARGGRGWTPSDYWGQGTQVTVSS” as the sequence, how does the “polyreactivity (PSR sort gate)” value read?
The value was “high polyreactivity”.

For “QVQLVESGGGLVQAGGSLRLSCAASGSTFRVYAMGWYRQAPGKERELVAAISGSGGSTYYADSVKGRFTISRDNAKNTVYLQMNSLKPEDTAVYYCAGRSWYTEYYWGQGTQVTVSS”, which “polyreactivity (PSR sort gate)” value is on record?
Its value is “high polyreactivity”.

Which “polyreactivity (PSR sort gate)” value does the source give for “QVQLVESGGGLVQAGGSLRLSCAASGSTFRVYAMGWYRQAPGKERELVAAISWSAGSTYYADSVKGRFTISRDNAKNTVYLQMNSLKPEDTAVYYCNADPDRYDWYTYLYLADYWGQGTQVTVSS” here?
Its value is “low polyreactivity”.

For “QVQLVESGGGLVQAGGSLRLSCAASGSTFRVYDMGWYRQAPGKERELVASLSYSVGSTYYADSVKGRFTISRDNAKNTVYLQMNSLKPEDTAVYYCAARPSYQPSSLARYDYWGQGTQVTVSS”, which “polyreactivity (PSR sort gate)” value is on record?
The value was “low polyreactivity”.

For “QVQLVESGGGLVQAGGSLRLSCAASGSTFRVYGMGWSRQAPGKERELVAVIRWRGGRTSYADSVKGRFTISRDYAKNTVYLQLNSLKPEDTAVYYCARQRSYGRSSYSYGYDYWGQGTQVTVSS”, which “polyreactivity (PSR sort gate)” value is on record?
The value was “high polyreactivity”.

For “QVQLVESGGGLVQAGGSLRLSCAASGSTFRWNAMGWYRQAPGKERELVAAISNGGSTNYADSVKGRFTISRDNAKNTVYLQMNSLIPEDTAVYYCATDGWYGQHYYDYDFDYYYWGQGTQVTVSS”, which “polyreactivity (PSR sort gate)” value is on record?
Its value is “low polyreactivity”.
